Results taken from patent US20250270324A1 (INVOX PHARMA, published 2025).
Positions count from the first letter of the chain named.

B1: G1/887_04_G12 (antibody, human IgG1, V domains shown)
VH: EVQLVQSGAEVKRPGASVKVSCKASGYTFTSYGISWVRQAPGQGLEWMGWISAYNSNTNYAQKLQGRVTMTTDTSTSTAYMELRSLRSDDTAVYYCARDLFPTIFGVSYYYYWGQGTLVTVSS
VL: DIQMTQSPSTLSASVGDRVTITCRASQSISGRLAWYQQKPGKAPNLLIYEASNLESGVPSRFSGSGSGTEFTLTISSLQPEDFATYYCQQSYSWPRTFGQGTKVEIKR
notes: IgG1 without LALA, kappa light chain
B2: G1/894_08_E05 (antibody, human IgG1, V domains shown)
VH: B1 VH
VL: DIQMTQSPSTLSASVGDRVTITCRASQSISGRLAWYQQKPGKAPNLLIYEASNLESGVPSRFSGSGSGTEFTLTISSLQPEDFATYYCQQSYSTPRVTFGQGTKVEIKR
notes: IgG1 without LALA, kappa light chain; also called G1/894_8_E05
B3: G1/887_04_E12 (antibody, human IgG1, V domains shown)
VH: B1 VH with T28P
VL: DIQMTQSPSTLSASVRDRVIITCRASQSIGNRLAWYQHKPGKAPKLLIYEASTSETGVPSRFSGSGSGTDFTLTISSLQPEDFATYYCQQSYSTPYTFGQGTKLEIKR
notes: IgG1 without LALA, kappa light chain; proline at Kabat position 28 of VH
B4: G1AA/280_02_G02_NS (antibody, human IgG1, L234A L235A)
heavy: not shown
light: QSALTQPASVSGSPGQSITISCTGTSSDVGGYNSVSWYQQFPGKAPKLMIFEVTNRPSGVSDRFSGSKSDNTASLTISGLQAEDEAEYYCSSFKRGSTLVVFGGGTKLTVLGQPAAAPSVTLFPPSSEELQANKATLVCLISDFYPGAVTVAWKADSSPVKAGVETTTPSKQSNNKYAASSYLSLTPEQWKSHRSYSCQVTHEGSTVEKTVAPTECS
notes: also called G1AA/280_2_G02_NS
B5: G1/280_02_G02_NS (antibody, human IgG1)
heavy: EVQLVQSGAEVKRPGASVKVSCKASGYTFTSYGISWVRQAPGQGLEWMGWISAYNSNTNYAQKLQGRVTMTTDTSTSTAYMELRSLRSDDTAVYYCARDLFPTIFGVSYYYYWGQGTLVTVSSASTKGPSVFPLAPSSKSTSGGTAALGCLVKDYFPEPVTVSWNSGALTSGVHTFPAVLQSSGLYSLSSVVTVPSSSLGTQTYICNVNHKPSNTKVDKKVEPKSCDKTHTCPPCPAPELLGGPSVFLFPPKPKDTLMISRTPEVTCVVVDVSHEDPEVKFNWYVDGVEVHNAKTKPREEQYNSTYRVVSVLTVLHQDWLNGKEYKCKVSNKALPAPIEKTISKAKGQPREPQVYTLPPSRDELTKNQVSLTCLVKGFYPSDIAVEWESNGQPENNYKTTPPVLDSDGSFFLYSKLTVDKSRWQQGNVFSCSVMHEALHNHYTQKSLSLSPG
light: B4 light
notes: IgG1 without LALA, lambda light chain; NG to NS variant of G1/280_02_G02
B6: G1/929_01_A02 (antibody, human IgG1, V domains shown)
VH: B1 VH with N55S, S56G, N57G
VL: B3 VL
notes: IgG1; The heavy chain as printed has T28
B7: G1/280_02_G02 (antibody, human IgG1, V domains shown)
VH: B1 VH with S56G
VL: QSALTQPASVSGSPGQSITISCTGTSSDVGGYNSVSWYQQFPGKAPKLMIFEVTNRPSGVSDRFSGSKSDNTASLTISGLQAEDEAEYYCSSFKRGSTLVVFG
B8: G1AA/E05v2 (antibody, human IgG1, kappa, L234A L235A)
heavy: not shown
light: DIQMTQSPSTLSASVGDRVTITCRASQSISGRLAWYQQKPGKAPNLLIYEASNLESGVPSRFSGSGSGTEFTLTISSLQPEDFATYYCQQSYSTPRVTFGQGTKVEIKRTVAAPSVFIFPPSDEQLKSGTASVVCLLNNFYPREAKVQWKVDNALQSGNSQESVTEQDSKDSTYSLSSTLTLSKADYEKHKVYACEVTHQGLSSPVTKSFNRGEC
notes: IgG1 with LALA, kappa light chain
B9: G1AA/G12v2 (antibody, human IgG1, kappa, L234A L235A)
heavy: not shown
light: DIQMTQSPSTLSASVGDRVTITCRASQSISGRLAWYQQKPGKAPNLLIYEASNLESGVPSRFSGSGSGTEFTLTISSLQPEDFATYYCQQSYSWPRTFGQGTKVEIKRTVAAPSVFIFPPSDEQLKSGTASVVCLLNNFYPREAKVQWKVDNALQSGNSQESVTEQDSKDSTYSLSSTLTLSKADYEKHKVYACEVTHQGLSSPVTKSFNRGEC
notes: as for B8
B10: G1AA/E12v2 (antibody, human IgG1, kappa, L234A L235A, V domains shown)
VH: B1 VH with T28P, N55S, S56G, N57G
VL: B3 VL
notes: IgG1 with LALA, kappa light chain; SGGT at 54-57 and proline at Kabat 28 of VH
B11: G1AA/lambdav3 (antibody, human IgG1, L234A L235A, V domains shown)
VH: B1 VH with N55S, S56G, N57G
VL: B7 VL with S34Y
notes: IgG1 with LALA, lambda light chain; also called G1AA/lamdav3

molecular target: T1, biotinylated human PD-L1-Avi-His (Acro Biosystems, PD1-H82E5) (human, UniProt Q9NZQ7 19-238, biotinylated); test: SPR (Biacore T200), mAb on Protein A chip, antigen 81-0.037 nM
T1 construct: Bought
T1 sequence (Q9NZQ7 19-238 limits assumed): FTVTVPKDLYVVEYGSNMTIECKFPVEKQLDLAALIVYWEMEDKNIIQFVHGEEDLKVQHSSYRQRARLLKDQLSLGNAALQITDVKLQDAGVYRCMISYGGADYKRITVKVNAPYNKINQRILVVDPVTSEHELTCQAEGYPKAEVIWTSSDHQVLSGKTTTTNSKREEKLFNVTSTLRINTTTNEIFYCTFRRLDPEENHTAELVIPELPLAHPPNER
Protocol: (§1) Briefly, the anti-PD-L1 mAbs, diluted in HBS-EP buffer (GE Healthcare, BR100188) at 2 μg/ml, were injected individually on flows cell 2, 3 and 4 of a Protein A chip (GE Healthcare, 29127556) at 30 μl/min to achieve a final response of approximately 110 RU. The recombinant human, cynomolgus and mouse PD-L1-His antigens, diluted in HBS-EP buffer, were injected on flow cell 1, 2, 3 or 4 as appropriate at a concentration range of 81 nM to 0.037 nM with 3-fold dilutions for 4 min at 75 μl/min and then allowed to dissociate in buffer for 10 min. Regeneration was achieved by injecting 10 mM glycine-HCL pH1.5 (GE Healthcare, Human Antibody Capture Kit, BR00356) for 30 sec at a rate of 30 μl/min. Subtracted data (flow cell 2-flow cell 1, flow cell 3-flow cell 1, or flow cell 4-flow cell 1) were analysed using BIAevaluation 3.2 Software (GE Healthcare) to identify binding using the model 1:1 binding with mass transfer, with refractive index (RI) constant 0. To determine the affinities of the mouse PD-L1 binding curves, the Rmax of the corresponding human binding profiles was used.

B1 was tested. Which Kd did it give?
The Kd was 0.39 nM.

With B2 as the binder, how does the Kd read?
Its Kd is 0.6 nM.

B3 was tested. Which Kd did it give?
Its Kd is 0.23 nM.

For B4, which Kd is on record?
The Kd was 1.1 nM.

molecular target: T2, cynomolgus PD-L1-His (Acro Biosystems, PD1-C52H4) (cynomolgus, UniProt G7PSE7 19-239); test: as above
T2 construct: Bought; also called Cyno PD-L1-His
T2 sequence (G7PSE7 entry or part of it): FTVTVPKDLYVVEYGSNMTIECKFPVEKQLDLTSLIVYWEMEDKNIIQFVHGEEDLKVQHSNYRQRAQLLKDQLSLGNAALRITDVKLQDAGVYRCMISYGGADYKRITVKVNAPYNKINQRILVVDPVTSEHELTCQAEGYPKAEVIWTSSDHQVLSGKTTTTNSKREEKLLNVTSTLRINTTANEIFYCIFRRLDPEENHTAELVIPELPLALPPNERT
Protocol: as §1

B1 was tested. Which Kd did it give?
Its Kd is 0.45 nM.

How did the Kd turn out when B2 was run?
The Kd was 0.49 nM.

B3 was tested. Which Kd did it give?
The Kd was 0.28 nM.

Which Kd does the source give for B4 here?
The Kd was 1.32 nM.

molecular target: mouse PD-L1 on LK35.2 cells (LK35.2 mPD-L1) (mouse, UniProt Q9EP73 19-290); test: cell-based or functional assay
Sequence (Q9EP73 19-290): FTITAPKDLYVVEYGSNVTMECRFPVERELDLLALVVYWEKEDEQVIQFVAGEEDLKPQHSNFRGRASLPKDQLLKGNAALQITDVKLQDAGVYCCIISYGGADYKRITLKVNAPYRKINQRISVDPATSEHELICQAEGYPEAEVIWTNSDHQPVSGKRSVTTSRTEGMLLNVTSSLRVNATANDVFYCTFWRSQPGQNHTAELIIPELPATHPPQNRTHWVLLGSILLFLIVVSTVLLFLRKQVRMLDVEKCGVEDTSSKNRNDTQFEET

How did the “EC50 (nM), mPD-L1 DO11.10 T Cell Activation Assay (IL-2 release)” value turn out when B1 was run?
Its value is 2.71 nM.

And the “Emax (pg/ml), mPD-L1 DO11.10 T Cell Activation Assay (IL-2 release)” value?
The value was 1910 pg/mL.

With B2 as the binder, how does the “EC50 (nM), mPD-L1 DO11.10 T Cell Activation Assay (IL-2 release)” value read?
Its value is 4.37 nM.

What about the “Emax (pg/ml), mPD-L1 DO11.10 T Cell Activation Assay (IL-2 release)” value of the same binder?
The value was 2110 pg/mL.

Which results are given for B3?
EC50 (nM), mPD-L1 DO11.10 T Cell Activation Assay (IL-2 release): 1.02 nM; Emax (pg/ml), mPD-L1 DO11.10 T Cell Activation Assay (IL-2 release): 1970 pg/mL

molecular target: T3, PD-L1 on PD-L1 cells (Promega, CS178103; PD1/PD-L1 Blockade Bioassay J1250/J1255) (UniProt Q9NZQ7 19-290); test: cell-based or functional assay
T3 sequence (Q9NZQ7 19-290): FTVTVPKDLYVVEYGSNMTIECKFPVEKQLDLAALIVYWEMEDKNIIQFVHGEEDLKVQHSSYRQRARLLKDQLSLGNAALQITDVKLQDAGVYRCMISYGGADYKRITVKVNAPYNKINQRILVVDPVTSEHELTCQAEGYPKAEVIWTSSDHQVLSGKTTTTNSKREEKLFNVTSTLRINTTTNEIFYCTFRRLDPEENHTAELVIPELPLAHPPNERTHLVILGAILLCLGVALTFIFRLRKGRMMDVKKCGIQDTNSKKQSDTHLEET

Which “IC50 (nM), PD1/PD-L1 Blockade Bioassay” value does the source give for B1 here?
Its value is 0.33 nM.

Which “IC50 (nM), PD1/PD-L1 Blockade Bioassay” value does the source give for B2 here?
Its value is 0.36 nM.

How did the “IC50 (nM), PD1/PD-L1 Blockade Bioassay” value turn out when B3 was run?
The value was 0.35 nM.

Which “IC50 (nM), PD1/PD-L1 Blockade Bioassay” value does the source give for B5 here?
The value was 0.51 nM.

molecular target: T1, biotinylated human PD-L1-Avi-His (Acro …); test: SPR; end of the range tied to this clone by the KD values of Table 4
Protocol: as §1

For B2, which “fold higher binding affinity than G1AA/280_02_G02_NS” value is on record?
Its value is 1.8 to 4.8 fold.

B3 was tested. Which “fold higher binding affinity than G1AA/280_02_G02_NS” value did it give?
Its value is 1.8 to 4.8 fold.

molecular target: T4, human PD-L1-rCD4-His (human); test: SPR, IgG1 from culture supernatant
T4 construct: Human PD-L1 fused to the monomeric C-terminal rat CD4 domains 3 and 4 tag and His tag; made in HEK293; The entry as printed begins with the signal peptide (MRIF...); also called hPD-L1-rCD4-His; hu-PD-L1-rCD4-His
T4 sequence (chain, as listed by the source limits assumed): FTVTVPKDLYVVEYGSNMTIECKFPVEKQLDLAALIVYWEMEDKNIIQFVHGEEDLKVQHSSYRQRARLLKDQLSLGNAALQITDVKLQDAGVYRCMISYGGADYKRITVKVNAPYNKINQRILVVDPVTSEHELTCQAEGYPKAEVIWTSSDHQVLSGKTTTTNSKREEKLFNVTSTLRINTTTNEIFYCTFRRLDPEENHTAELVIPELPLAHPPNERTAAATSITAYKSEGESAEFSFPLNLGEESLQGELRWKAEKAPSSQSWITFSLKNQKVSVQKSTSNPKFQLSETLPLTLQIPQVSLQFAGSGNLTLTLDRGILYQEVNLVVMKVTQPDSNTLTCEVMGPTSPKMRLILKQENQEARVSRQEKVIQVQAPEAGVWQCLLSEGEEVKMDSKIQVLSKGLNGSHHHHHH

B6 was tested. Which Kd did it give?
The Kd was 3.07 nM.

For B1, which Kd is on record?
Its Kd is 0.36 nM.

B2 was tested. Which Kd did it give?
Its Kd is 0.48 nM.

How did the Kd turn out when B3 was run?
Its Kd is 0.21 nM.

How did the Kd turn out when B5 was run?
Its Kd is 1.2 nM.

molecular target: T5, Cyno PD-L1-rCD4-His (cynomolgus); test: SPR, IgG1 from culture supernatant
T5 construct: The entry as printed begins with the signal peptide; also called cynomolgus PD-L1-rCD4-His
T5 sequence (chain, as listed by the source limits assumed): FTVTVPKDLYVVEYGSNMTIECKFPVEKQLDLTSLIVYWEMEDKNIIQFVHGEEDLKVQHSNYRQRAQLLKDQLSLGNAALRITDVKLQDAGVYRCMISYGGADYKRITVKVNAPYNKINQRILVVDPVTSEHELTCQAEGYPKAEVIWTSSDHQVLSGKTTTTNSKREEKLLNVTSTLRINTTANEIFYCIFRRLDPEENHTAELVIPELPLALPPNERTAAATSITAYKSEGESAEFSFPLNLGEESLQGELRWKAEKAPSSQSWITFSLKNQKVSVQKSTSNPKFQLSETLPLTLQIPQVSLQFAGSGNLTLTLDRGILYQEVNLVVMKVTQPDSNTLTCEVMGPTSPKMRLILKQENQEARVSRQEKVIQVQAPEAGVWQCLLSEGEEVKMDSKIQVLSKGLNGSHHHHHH

B6 was tested. Which Kd did it give?
Its Kd is 3.64 nM.

Which Kd does the source give for B1 here?
The Kd was 0.5 nM.

How did the Kd turn out when B2 was run?
Its Kd is 0.59 nM.

With B3 as the binder, how does the Kd read?
Its Kd is 0.25 nM.

B5 was tested. Which Kd did it give?
Its Kd is 1.8 nM.

molecular target: T6, human PD-L1 on HEK293 cells (HEK293.hPD-L1) (human, UniProt Q9NZQ7 19-290); test: flow cytometry on HEK293 cells expressing human PD-L1, GMFI against concentration
T6 construct: Flp-In T-REx 293 cells stably overexpressing human PD-L1; also called cell surface human PD-L1
T6 sequence (Q9NZQ7 19-290): as the sequence (Q9NZQ7 19-290) above
Protocol: Non-specific binding was also assessed by testing binding to HEK293 parental cells lacking human PD-L1 (Flp-In T-Rex 293 cell line, Life Technologies, R780-07).
HEK293 and HEK293.hPD-L1 suspensions were prepared in PBS containing 0.5% BSA (Sigma. A7906) and seeded at 1×10⁵ cell/well in 100 μl in round bottomed 96-well plates (VWR, 734-1797). […] The washed cells were resuspended in the diluted antibody mixture, incubated at 4° C. for 30 minutes, and then washed once in PBS. 100 μl/well of secondary antibody (Alexa Fluor 647-AffiniPure Goat Anti-Human IgG, F(ab′)2 Fragment Specific, Stratech Scientific, 109-605-006-JIR) diluted 1:1000 in PBS was then added, the cells/antibody mixture was incubated for 20 mins at 4° C., and the cells were then washed again with PBS and resuspended in 100 μl of PBS containing 7AAD (1:1000, Biotium, 40043) before being analysed using a Canto II flow cytometer (BD Bioscience). Dead cells were excluded and the fluorescence in the FITC channel (488 nm/530/30) was measured. The geometric mean fluorescence intensity (GMFI) values were plotted against the log concentration of antibody and the resulting curves were fitted using the log (agonist) versus response equation in GraphPad Prism.

For B1, which EC50 is on record?
Its EC50 is 0.27 nM.

For B2, which EC50 is on record?
The EC50 was 0.29 nM.

How did the EC50 turn out when B3 was run?
The EC50 was 0.26 nM.

molecular target: T7, mouse PD-L1-His (Acro Biosystems, PD1-M5220) (mouse, UniProt Q9EP73 19-238); test: SPR (Biacore T200), mAb on Protein A chip, antigen 81-0.037 nM; Rmax of the human profile used
T7 construct: Bought; also called recombinant mouse PD-L1
T7 sequence (Q9EP73 19-238 limits assumed): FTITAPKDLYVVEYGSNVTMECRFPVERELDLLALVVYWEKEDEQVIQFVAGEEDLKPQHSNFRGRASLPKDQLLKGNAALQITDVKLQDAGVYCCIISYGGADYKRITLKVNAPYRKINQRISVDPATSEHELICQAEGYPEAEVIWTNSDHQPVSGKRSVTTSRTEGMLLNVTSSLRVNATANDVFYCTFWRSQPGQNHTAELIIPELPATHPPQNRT
Protocol: as §1

With B1 as the binder, how does the Kd read?
Its Kd is 225 nM.

How did the Kd turn out when B2 was run?
Its Kd is 223 nM.

For B3, which Kd is on record?
Its Kd is 38 nM.

B4 was tested. Which Kd did it give?
The Kd was 137 nM.

molecular target: T4, human PD-L1-rCD4-His; test: SPR; G1/929_01_A02 on PD-L1-rCD4-His (Table 8) against G1AA/E12v2 on PD-L1-His (Table 9)

For B6, which “fold lower affinity than G1AA/E12v2” value is on record?
Its value is over 10 fold.

molecular target: T5, Cyno PD-L1-rCD4-His; test: as above

Which “fold lower affinity than G1AA/E12v2” value does the source give for B6 here?
Its value is over 10 fold.

molecular target: T3, PD-L1 on PD-L1 cells (Promega, …); test: cell-based or functional assay; remark: another data set of the same source

How did the “half maximal effective concentration (EC50), dose-response co-culture reporter assay (luciferase)” value turn out when B7 was run?
Its value is 4.2 nM.

molecular target: T1, biotinylated human PD-L1-Avi-His (Acro …); test: SPR as in Example 3.2, mAb on Protein A chip
Protocol: as §1

B8 was tested. Which Kd did it give?
Its Kd is 0.5 nM.

With B9 as the binder, how does the Kd read?
The Kd was 0.44 nM.

For B10, which Kd is on record?
Its Kd is 0.21 nM.

With B11 as the binder, how does the Kd read?
The Kd was 1.34 nM.

molecular target: T2, cynomolgus PD-L1-His (Acro Biosystems, …); test: SPR as in Example 3.2, mAb on Protein A chip
Protocol: as §1

How did the Kd turn out when B8 was run?
Its Kd is 0.89 nM.

With B9 as the binder, how does the Kd read?
The Kd was 0.75 nM.

B10 was tested. Which Kd did it give?
Its Kd is 0.37 nM.

B11 was tested. Which Kd did it give?
The Kd was 2.45 nM.
